Consider two molecules from KR20230148435A.

Experiment [1] deals with HGF protein (hepatocyte growth factor) (UniProt P14210). In words: ELISA, HGF coated on plate, 24 h culture supernatant of YYB-103-1XX+YYB-101 scFv CAR-T cells.
Experiment [2] shares this target. In words: ELISA, HGF coated on plate, YYB-101 at 1 ug/mL as positive control.

UniProt P14210, sequence (P14210 32-728 limits assumed): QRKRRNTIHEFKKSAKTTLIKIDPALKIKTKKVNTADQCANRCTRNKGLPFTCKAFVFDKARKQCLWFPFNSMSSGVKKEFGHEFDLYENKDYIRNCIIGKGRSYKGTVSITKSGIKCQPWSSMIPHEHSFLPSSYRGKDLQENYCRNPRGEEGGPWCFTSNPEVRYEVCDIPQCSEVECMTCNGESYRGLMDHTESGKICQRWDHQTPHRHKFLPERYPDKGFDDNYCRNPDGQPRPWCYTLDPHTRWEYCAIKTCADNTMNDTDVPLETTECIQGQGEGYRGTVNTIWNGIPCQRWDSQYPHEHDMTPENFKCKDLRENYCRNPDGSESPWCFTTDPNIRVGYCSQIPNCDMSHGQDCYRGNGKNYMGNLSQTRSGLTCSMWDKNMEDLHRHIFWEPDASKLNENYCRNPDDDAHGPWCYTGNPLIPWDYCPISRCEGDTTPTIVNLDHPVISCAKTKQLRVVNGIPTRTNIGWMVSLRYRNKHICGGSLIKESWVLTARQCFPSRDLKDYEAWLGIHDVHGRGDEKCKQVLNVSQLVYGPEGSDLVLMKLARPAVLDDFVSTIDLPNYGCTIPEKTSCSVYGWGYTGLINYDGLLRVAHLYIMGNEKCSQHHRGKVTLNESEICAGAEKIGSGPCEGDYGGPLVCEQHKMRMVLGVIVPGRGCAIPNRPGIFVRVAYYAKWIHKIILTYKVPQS

B1: YYB-101 Single Chain Variable Fragment (scFv) (scFv)
scFv: DIQMTQSPSSLSASVGDRVTITCRASQGISNILAWYQQKPGKAPKLLIYGASNLESGVPSRFSGSGSGTDFTLTISSLQPEDFATYYCQSGYYSRGATFGQGTKVEIKGGGGSGGGGSGGGGSEVQLVESGGGLVQPGGSLRLSCAASGFTFSTYYMSWVRQAPGKGLEWVAYIGTSSGTTYYADSVKGRFTISRDGSKNTLYLQMNSLRAEDTAVYYCARGLGRINLWGQGTLVTVSS
With B1, the OD, 450nm (HGF 결합) in experiment [1] is 2.63 OD 450 nm.

B2: YYB-101 (HGF neutralising antibody) (antibody, human IgG4 S228P, kappa, V domains shown)
VH: EVQLVESGGGLVQPGGSLRLSCAASGFTFSTYYMSWVRQAPGKGLEWVAYIGTSSGTTYYADSVKGRFTISRDGSKNTLYLQMNSLRAEDTAVYYCARGLGRINLWGQGTLVTVSS
VL: DIQMTQSPSSLSASVGDRVTITCRASQGISNILAWYQQKPGKAPKLLIYGASNLESGVPSRFSGSGSGTDFTLTISSLQPEDFATYYCQSGYYSRGATFGQGTKVEIKR
In experiment [2], B2 registered an OD, 450nm (HGF 결합) of 3.02 OD 450 nm.
